# Molecular target: the molecule itself
# Experiment: SEC
protein,measurement,value
Corynebacterium glutamicum citrate synthase with a C-terminal Strep tag (CgCS-Strep) (enzyme) MFERDIVATDNNKAVLHYPGGEFEMDIIEASEGNNGVVLGKMLSETGLITFDPGYVSTGSTESKITYIDGDAGILRYRGYDIADLAENATFNEVSYLLINGELPTPDELHKFNDEIRHHTLLDEDFKSQFNVFPRDAHPMATLASSVNILSTYYQDQLNPLDEAQLDKATVRLMAKVPMLAAYAHRARKGAPYMYPDNSLNARENFLRMMFGYPTEPYEIDPIMVKALDKLLILHADHEQNCSTSTVRMIGSAQANMFVSIAGGINALSGPLHGGANQAVLEMLEDIKSNHGGDATEFMNKVKNKEDGVRLMGFGHRVYKNYDPRAAIVKETAHEILEHLGGDDLLDLAIKLEEIALADDYFISRKLYPNVDFYTGLIYRAMGFPTDFFTVLFAIGRLPGWIAHYREQLGAAGNKINRPRQVYTGNESRKLVPREER,stoichiometry N,2
